Results reported in PMC6349404, “Integrin alpha11 is an Osteolectin receptor and is required for the maintenance of adult skeletal bone mass” (eLife, 2019).

Key:
Experiment in all cases: ELISA; microtiter well binding assay; plates coated with 10 nM recombinant human Osteolectin, Pro-Collagen 1α or BSA overnight at 4°C, blocked with 10 mg/ml BSA; 6xHis tagged integrins in TBS (50 mM Tris-Cl pH 7.5, 150 mM NaCl) with 1 mM MnCl2; bound integrin detected with anti-His tag antibody and HRP secondary, OD 450 nm
Settings in all cases: both partners purified
[1] = biological target: T1, recombinant human integrin α4β1 (human, UniProt P13612 35-977; P05556 21-728)
T1 construct: integrin α4, human, chain of the recombinant heterodimer; integrin β1, human, chain of the recombinant heterodimer; source: bought: R and D Systems
T1 sequence (P13612 35-977, chain 1 of 2): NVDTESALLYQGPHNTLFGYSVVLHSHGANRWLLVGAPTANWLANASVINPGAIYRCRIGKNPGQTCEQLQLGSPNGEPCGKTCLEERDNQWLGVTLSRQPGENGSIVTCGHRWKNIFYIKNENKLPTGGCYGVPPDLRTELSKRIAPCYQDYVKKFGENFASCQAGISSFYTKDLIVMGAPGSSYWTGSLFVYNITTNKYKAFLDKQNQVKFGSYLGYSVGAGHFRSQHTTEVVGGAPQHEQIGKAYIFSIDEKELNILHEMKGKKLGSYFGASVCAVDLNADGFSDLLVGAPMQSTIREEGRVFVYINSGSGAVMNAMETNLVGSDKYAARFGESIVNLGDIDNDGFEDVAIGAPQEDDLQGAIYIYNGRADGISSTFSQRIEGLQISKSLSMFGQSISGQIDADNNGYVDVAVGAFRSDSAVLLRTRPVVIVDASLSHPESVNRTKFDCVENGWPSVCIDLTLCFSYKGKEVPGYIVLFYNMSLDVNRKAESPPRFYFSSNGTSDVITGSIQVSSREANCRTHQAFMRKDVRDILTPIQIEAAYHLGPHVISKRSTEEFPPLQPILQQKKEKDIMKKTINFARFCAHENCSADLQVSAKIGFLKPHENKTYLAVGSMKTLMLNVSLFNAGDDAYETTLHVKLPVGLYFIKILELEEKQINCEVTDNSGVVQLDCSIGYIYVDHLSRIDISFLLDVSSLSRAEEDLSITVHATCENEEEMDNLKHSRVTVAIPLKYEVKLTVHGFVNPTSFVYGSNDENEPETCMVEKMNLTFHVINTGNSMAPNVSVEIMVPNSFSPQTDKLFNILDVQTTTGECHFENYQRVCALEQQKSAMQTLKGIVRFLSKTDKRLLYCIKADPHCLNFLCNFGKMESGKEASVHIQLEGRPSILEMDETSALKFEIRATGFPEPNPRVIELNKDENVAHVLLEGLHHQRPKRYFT
T1 sequence (P05556 21-728, chain 2 of 2): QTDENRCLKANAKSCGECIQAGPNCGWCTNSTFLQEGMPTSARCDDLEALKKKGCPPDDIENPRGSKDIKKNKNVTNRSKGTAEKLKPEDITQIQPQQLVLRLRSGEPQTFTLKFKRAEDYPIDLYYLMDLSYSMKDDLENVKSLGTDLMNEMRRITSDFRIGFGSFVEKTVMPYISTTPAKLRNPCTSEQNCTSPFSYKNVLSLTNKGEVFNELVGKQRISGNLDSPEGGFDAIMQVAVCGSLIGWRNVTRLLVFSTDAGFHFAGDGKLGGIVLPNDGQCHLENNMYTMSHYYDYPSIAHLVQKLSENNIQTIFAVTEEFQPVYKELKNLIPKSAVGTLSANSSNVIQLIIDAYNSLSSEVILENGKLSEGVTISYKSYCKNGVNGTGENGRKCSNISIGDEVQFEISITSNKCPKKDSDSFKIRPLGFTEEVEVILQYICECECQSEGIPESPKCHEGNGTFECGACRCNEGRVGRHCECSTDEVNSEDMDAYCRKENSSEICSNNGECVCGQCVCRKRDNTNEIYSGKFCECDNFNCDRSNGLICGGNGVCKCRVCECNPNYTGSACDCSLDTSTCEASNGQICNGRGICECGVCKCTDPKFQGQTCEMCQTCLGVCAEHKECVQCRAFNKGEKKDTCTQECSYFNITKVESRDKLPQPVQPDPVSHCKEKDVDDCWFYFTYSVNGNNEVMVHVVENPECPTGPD

[2] = biological target: T2, recombinant human integrin α9β1 (human, UniProt Q13797 30-981; P05556 21-728)
T2 construct: integrin α9, human, chain of the recombinant heterodimer; integrin β1, human, chain of the recombinant heterodimer; source: bought: R and D Systems
T2 sequence (Q13797 30-981, chain 1 of 2): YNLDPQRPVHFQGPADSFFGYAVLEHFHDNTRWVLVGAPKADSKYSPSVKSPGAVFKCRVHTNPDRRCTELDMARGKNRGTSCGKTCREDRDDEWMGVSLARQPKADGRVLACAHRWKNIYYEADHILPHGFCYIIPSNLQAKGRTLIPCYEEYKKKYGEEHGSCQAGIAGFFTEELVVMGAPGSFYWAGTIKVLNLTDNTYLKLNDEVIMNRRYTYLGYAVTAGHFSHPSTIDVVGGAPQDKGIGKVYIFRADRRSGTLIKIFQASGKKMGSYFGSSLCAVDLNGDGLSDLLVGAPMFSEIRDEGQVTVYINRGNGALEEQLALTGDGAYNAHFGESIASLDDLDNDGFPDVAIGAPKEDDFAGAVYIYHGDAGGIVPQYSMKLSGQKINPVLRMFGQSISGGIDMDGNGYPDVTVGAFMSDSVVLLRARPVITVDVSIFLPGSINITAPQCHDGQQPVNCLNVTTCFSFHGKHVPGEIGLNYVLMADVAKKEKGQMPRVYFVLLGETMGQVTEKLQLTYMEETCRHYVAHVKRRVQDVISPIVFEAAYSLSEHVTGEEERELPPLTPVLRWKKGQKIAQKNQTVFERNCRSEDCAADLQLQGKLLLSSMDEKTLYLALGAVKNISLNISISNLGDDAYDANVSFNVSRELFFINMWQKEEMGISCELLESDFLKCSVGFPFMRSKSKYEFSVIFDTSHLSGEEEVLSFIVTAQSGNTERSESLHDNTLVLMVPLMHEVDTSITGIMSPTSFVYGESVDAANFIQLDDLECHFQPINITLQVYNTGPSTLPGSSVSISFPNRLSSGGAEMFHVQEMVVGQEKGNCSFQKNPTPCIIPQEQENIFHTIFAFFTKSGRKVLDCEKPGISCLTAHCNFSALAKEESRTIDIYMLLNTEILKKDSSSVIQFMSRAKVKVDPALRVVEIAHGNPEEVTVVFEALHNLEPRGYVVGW
T2 sequence (P05556 21-728, chain 2 of 2): as the sequence (P05556 21-728, chain 2 of 2) above

[3] = biological target: T3, recombinant human integrin α10β1 (human, UniProt O75578 23-1122; P05556 21-728)
T3 construct: integrin α10, human, chain of the recombinant heterodimer; integrin β1, human, chain of the recombinant heterodimer; source: bought: R and D Systems
T3 sequence (O75578 23-1122, chain 1 of 2): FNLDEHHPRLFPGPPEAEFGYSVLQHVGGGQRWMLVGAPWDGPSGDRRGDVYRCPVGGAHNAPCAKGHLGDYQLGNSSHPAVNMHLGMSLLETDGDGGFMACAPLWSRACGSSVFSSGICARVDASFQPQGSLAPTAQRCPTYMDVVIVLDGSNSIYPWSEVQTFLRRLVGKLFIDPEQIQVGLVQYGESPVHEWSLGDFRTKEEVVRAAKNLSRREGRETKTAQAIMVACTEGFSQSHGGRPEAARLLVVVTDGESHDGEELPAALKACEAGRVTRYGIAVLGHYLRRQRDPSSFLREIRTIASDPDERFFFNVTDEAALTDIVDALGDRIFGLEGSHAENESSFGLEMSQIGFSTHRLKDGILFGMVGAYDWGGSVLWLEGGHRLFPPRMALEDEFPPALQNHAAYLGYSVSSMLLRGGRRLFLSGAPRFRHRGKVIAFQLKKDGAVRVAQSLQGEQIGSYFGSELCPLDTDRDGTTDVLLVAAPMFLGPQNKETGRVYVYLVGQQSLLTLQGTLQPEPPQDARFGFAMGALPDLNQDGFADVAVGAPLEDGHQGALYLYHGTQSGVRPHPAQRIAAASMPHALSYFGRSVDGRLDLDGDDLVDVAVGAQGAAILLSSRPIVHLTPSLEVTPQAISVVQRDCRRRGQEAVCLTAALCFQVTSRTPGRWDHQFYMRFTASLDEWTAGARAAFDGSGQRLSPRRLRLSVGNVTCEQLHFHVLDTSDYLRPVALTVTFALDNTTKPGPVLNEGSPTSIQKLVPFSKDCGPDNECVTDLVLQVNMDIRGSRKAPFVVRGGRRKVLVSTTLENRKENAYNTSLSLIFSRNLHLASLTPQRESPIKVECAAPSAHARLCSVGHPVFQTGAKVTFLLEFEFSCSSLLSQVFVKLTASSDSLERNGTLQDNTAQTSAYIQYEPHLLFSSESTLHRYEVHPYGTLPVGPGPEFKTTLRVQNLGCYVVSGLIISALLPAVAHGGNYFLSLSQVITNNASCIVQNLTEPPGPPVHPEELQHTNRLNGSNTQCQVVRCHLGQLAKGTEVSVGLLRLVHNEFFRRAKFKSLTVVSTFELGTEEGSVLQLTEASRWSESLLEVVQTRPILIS
T3 sequence (P05556 21-728, chain 2 of 2): as the sequence (P05556 21-728, chain 2 of 2) above

[4] = biological target: T4, recombinant human integrin α11β1 (human, UniProt Q9UKX5 23-1141; P05556 21-728)
T4 construct: integrin α11, human, chain of the recombinant heterodimer; integrin β1, human, chain of the recombinant heterodimer; also called α11β1 integrin; source: bought: R and D Systems
T4 sequence (Q9UKX5 23-1141, chain 1 of 2): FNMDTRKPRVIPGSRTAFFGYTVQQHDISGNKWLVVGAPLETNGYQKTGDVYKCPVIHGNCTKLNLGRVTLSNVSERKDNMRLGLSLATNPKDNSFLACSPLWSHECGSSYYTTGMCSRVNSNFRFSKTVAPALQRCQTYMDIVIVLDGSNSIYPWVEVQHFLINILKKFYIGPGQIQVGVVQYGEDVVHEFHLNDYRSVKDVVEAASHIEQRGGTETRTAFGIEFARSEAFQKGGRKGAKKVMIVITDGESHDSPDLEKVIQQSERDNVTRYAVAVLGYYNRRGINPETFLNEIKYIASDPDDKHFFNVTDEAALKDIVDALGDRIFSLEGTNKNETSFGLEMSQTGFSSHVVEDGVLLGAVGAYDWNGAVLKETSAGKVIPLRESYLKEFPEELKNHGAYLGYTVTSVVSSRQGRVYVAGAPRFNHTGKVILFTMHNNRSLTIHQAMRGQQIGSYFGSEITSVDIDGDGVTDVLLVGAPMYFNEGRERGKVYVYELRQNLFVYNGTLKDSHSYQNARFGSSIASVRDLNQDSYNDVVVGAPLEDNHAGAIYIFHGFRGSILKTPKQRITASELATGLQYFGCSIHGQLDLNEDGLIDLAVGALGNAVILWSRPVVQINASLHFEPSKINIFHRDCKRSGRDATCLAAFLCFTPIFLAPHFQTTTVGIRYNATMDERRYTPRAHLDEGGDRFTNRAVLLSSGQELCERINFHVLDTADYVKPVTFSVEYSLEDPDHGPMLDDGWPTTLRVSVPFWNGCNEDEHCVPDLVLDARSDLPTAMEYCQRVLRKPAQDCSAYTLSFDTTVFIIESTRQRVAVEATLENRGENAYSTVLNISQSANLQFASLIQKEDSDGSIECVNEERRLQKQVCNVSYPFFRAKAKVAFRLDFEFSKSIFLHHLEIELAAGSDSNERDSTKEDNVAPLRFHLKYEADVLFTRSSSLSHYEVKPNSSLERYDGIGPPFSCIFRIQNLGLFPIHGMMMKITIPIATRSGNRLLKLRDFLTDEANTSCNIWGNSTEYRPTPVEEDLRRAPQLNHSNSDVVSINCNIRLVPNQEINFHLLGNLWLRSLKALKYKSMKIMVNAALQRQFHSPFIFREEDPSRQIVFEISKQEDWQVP
T4 sequence (P05556 21-728, chain 2 of 2): as the sequence (P05556 21-728, chain 2 of 2) above

[5] = biological target: recombinant human integrin αMβ2 (human, UniProt P11215 17-1104; P05107 23-700)

B1: recombinant human Osteolectin (ligand, UniProt Q9Y240 22-323, looked up)
chain: ARGAEREWEGGWGGAQEEEREREALMLKHLQEALGLPAGRGDENPAGTVEGKEDWEMEEDQGEEEEEEATPTPSSGPSPSPTPEDIVTYILGRLAGLDAGLHQLHVRLHALDTRVVELTQGLRQLRNAAGDTRDAVQALQEAQGRAEREHGRLEGCLKGLRLGHKCFLLSRDFEAQAAAQARCTARGGSLAQPADRQQMEALTRYLRAALAPYNWPVWLGVHDRRAEGLYLFENGQRVSFFAWHRSPRPELGAQPSASPHPLSPDQPNGGTLENCVAQASDDGSWWDHDCQRRLYYVCEFPF
notes: Osteolectin/Clec11a, human; cDNA cloned into pcDNA3 with a C-terminal 1XFlag-tag; secreted into the culture medium; also called rhOln; Clec11a
[1]
  Kd: > 100 nM
[2]
  Kd: > 100 nM
[3]
  Kd: 0.3 nM
[4]
  Kd: 0.3 nM
[5]
  Kd: > 100 nM
